Results from the DeepSol protein solubility set.

test: soluble on expression in E. coli; label from the status in PepcDB or PDB records

Sequence | soluble on expression in E. coli
MEIKEMVSLARKAQKEYQATHNQEAVDNICRAAAKVIYENAAILAREAVDETGMGVYEHKVAKNQGKSKGVWYNLHNKKSIGILNIDERTGMIEIAKPIGVVGAVTPTTNPIVTPMSNIIFALKTCNAIIIAPHPRSKKCSAHAVRLIKEAIAPFNVPEGMVQIIEEPSIEKTQELMGAVDVVVATGGMGMVKSAYSSGKPSFGVGAGNVQVIVDSNIDFEAAAEKIITGRAFDNGIICSGEQSIIYNEADKEAVFTAFRNHGAYFCDEAEGDRARAAIFENGAIAKDVVGQSVAFIAKKANINIPEGTRILVVEARGVGAEDVICKEKMCPVMCALSYKHFEEGVEIARTNLANEGNGHTCAIHSNNQAHIILAGSELTVSRIVVNAPSATTAGGHIQNGLAVTNTLGCGSWGNNSISENFTYKHLLNISRIAPLNSSIHIPDDKEIWEL | soluble
MGSDKIHHHHHHMNTDIAKNTNSLNDDKKSNSEQRPYGIVLYGATSFVGQITAHYLAEFLSTSKDASGTTVTWAIAGRDEKKLNELQSKLASKVNIIIANSDDATSLDELTEQTQVIISTVGPYLKYGEPLIKSCVDNGTDYVDLTGEAIFIKDMIDKYQEAAKQSGARIVNSCGFDSIPSDLGVYFTQKQAEAKFDSACDVIHMRVKAAKGGLSGGTIASMATIFEEVGQDKSRRKQVANPYLLNDDKDVPNVRQSNVSKPEYDSEHKRWLAPFVMASINTRIVHRSNQLLGYEYGRDFKYDEAMWMKDGIKGKLTSYALSAGLLGFATAMMITPSRELLSKHVLPKSGSGPSKEEQENGYFDIRLFGKTANKETIATKVTGDKDPGYGSTSRMLSQAALCLAQDISKEAVGGGFWTPASAMGDKLLARLKEHAGLSFDVIDR | not soluble
MAHHHHHHMGDFALISMNGDRVFISLDPVFTSQSLWLQAAEGLGEREGVVPIASTETLHNLVEYMAFQAKRMAGVAEGECKGGQTVTLPISCTTCSGSGGLGYDVHSLLPDHDIAFLDRFGGTGGVWEVEQQEKLMELMATADFVGHGRLSRLCAVYISCRLMSATESDILSWFSVCGDRCGGVASADPEADDGNRAGERVLRDAERLRILNQMRKYIEIED | not soluble
MGSDKIHHHHHHAALYARWAPTHSAAPAAEQQRKVLFWYDPMYPNTRFDKPGKSPFMDMDLVPKYADEEHAAAGAPGVRIDPTQTQNLGVKTAAVTRGPLRYAQTFPANISYNEYQYVIMQARAAGFINKVYPLTVGDKVKQGTPLLELTIPDWVEAQSEYLLLQETGGTATQVEGILERLRLAGMPDDDIRRLKATRKIQTRFTLTAPIDGVITAFDLRAGMNIAKDNVVAKIQGMDPVWVSVAVPESIAWLIKDASQFSIQVPAWPGKTFRISKWTLLPSVDSATRTLQLRLQVNNPDEALKPGMNAYLQLTSESAPMLLIPSKALIDSGSEQRVITVDNEGRFVPKRVQVFHESAGVTAIRSGLQEGEKVVARGLFLIDSEANIAGALERMRAQAPDAAASAAHAH | not soluble
MNSENSKWQAIQESTFALARKCEEFDSDGITVYLFSKTFQRYDYVNSAKVKQLFAENSPSETTNLVGVLQDAINSYFQRKSLGKTKPAGEVILVITDGAPVDSQAVCEVIIKATHLVESANELRISIIQVGSDSHATKFLKALDDHLQSVGAKFDICDTITLDELEITNLSDVLMKAITDLEHHHHHH | not soluble
MSLNYEMFAKLYDRLMADAPYDRWAKLVEEEIRKAIFSDVNLLDIGCGTGRLLKILSERGYACTGVDQSANMLVIAREALAQKGVQVPLFQQDMTEFYTGETYQVITIFCDSLNYVITEEGVVQTFQRVFDHLDQQGVFMFDVHSPTKLRNHFIGKTFADADEEISYIWQSFAGEAEQSVEHELTFFVRNETGSYDRYEELHIQRGYPIERYVDWLKEAGFSRIDITADFTNEAPTENSERIFFKAYKKEGHHHHHH | soluble
MMNISHKDHHNDQEISDANRDWWDSDAQRYHNDHAAYLNGFHWCPEMLPEREAHLLGDISGLNVLEIGCGSAPCSRWLFDNYDAFVTGFDLSMGMLRHSPTDVPLTQADAVNLPYKDSSFDIAFSAFGAFPFIENLGPVLKDIARCLKPHGKLVFSTNHPMRWIFPDDPTEIGLCAELSYFDRSYTERDKNGKITYAEFHRTMGDWIELLNASGFIIDRLIEPEWPTNLTETWGQWSPLRGRIFPGTAIFVTHCR | not soluble
MSLDIHDILVIDDSRLQRQHAMDLCRQLGIASVREAPDGERGLTLMRVQMPDLLLLDLEMPKQDGVQVMQEMARAGLSSPVIITSGKDYLLISTVELMGRELGLPVLGCLQKPLQLPALLDLMHRVWTPAERPDDAPLAADEVRVALEKGQIIPYYQPKVNLADGRVKGAEMLARWQHPDLGLIPPSRFIPVIEDNGWATELTMLMLRQGLTQWQEWARHGLRLPLSVNLSALSLRGDELVDEIECYVRGSHVPARFIIFEVTETAIVDNLAQAIGCAVRLRLAGLGLSIDDFGTGFATLQQLTRFPFTELKIDQSLVTGISDKPHLQAVFNSIIEMARRLQLATVAEGIETAEDYQLMAERGCQLGQGYYFARPLPAAAFLEWTRQPPVLPTAGEGHHHHHH | not soluble
MAKHEQILVLDPPSDLKFKGPFTDVVTTNLKLQNPSDRKVCFKVKTTAPRRYCVRPNSGIIDPGSIVTVSVMLQPFDYDPNEKSKHKFMVQTIFAPPNISDMEAVWKEAKPDELMDSKLRCVFEMPNENDKLND | soluble
MERVNERREQNNPNGCCLRDEDFSQFNSEAFLRELAADLNEDDTNDLSSSLFATSRIPEEHIRSTGLVERAEHYNKSVDQRTMTDARIAFEEEQLKNGKSPNAGTSGMENLADSGTHVPRRGRGDYFGKLRSFENGVSFPSRPPLTSEHSSSGDSYFNNSHKTTPNYRRFANSNDSSRDNSQMEYKAENDASHTSQSSNRFGFNSQINRTDIHPPAARHTFNPAAAYNGKITPDFRFNYIPNAAVPAPSVVPVIATHPGVAPPSIVPSPIRIGQRYPKRPDNMPKPSSEPKHLNHNYYQIELYGATQEDRIAQRIEKTVRQTEAPVRRF | not soluble
MATAHYHGSCQCGSVSFEVDADLDHTVICNCSRCKRLGSTLAFAPREKFTLLSGEDKLSEYLFNKHKIHHFFCSTCGIESFAYADGPDGTPMVAVNANCLDGVDPRALKSQAFDGAAA | soluble
MDHPDPNKWADCVHCGMCLEACPTYELTGHEQQSPRGRVHLIKSVAEGKLEVNEAFADPVFTCLDCRACETACPADVEVGGLIEEARGQIRQALPLEHHHHHH | soluble
MFSAKKRDKCIGEMSEKQLDLLVIGGGITGAGIALDAQVRGIQTGLVEMNDFASGTSSRSTKLVHGGLRYLKQFEIKLVAEVGKERAIVYENAPHVTTPEWMLLPIFKDGTFGKFSTSLGLKVYDYLADVRKDERRYMLNEKQTLEKEPLLRKENLKGGGIYVEYRTDDARLTLEIMKEAVARGAVALNYMKVESFIYDQGKVVGVVAKDRLTDTTHTIYAKKVVNAAGPWVDTLREKDRSKHGKYLKLSKGVHLVVDQSRFPLRQAVYFDTESDGRMIFAIPREGKTYIGTTDTFYDKDIASPRMTVEDRDYILAAANYMFPSLNLTADDVESSWAGLRPLIHEEGKKASEISRKDEIFFSDSGLISIAGGKLTGYRKMAERTVDAVAQGLNVNEPCTTAAIRLSGGLAEGAQGFPRFLDEASRKGAKLGFDADEVRRLAKLYGSNVDHVLNYAYEGKEEAEHYGLPALLLGQLQYGVEQEMVATPLDFFVRRTGALFFNISLVHQWKEAVLRWMAEEFSWTEEEKTRFQNELETELKMAVDPLFQVEPTTVLEHHHHHH | soluble
MSLCMEAVMNIGIYIYDEAEVLDFSGPFEVFSTAKRLGAGSWNVFLVSETLEPVKARGGFTVLPDYSFQNYPQIDLLIVVGGVHRNEMNKSNVLHWVASVDKHAKHIASVCTGAFILANAGLLKGLAVTTHWEDIPELKQRFPDLVVVEDKRWITASKYTTSGGISAGIDMSLFLVSKFHSQSHAELVAHQMEYNWQKCTEGGSHHHHHH | soluble
MFNCLTKLVILVCLKYVAKALLNRSTGLIMKDKPEGVHHIKSCSDSSSRIWYSLWMNIAFCGGLGPTSIFDPCFLTSSAPSPPSAPALAIPAAAPPLPTSVPAGAGVEAGAGAETVSSSLMIFSSFFLYN | soluble
MGSDKIHHHHHHVEASYAQRLRQEKGYAYADNCNTKTSLSIKMSMVLLTPTVSSNFEKDSLIYMAKKIHFISNSIVKEINNSDNVSILVLDKEEIISLFKANGILLFRGFDVDVDIFKEFTNLLSIDFINYAGGAFSRRVINGDQTVLSVNDFKSEIKLHGEMYYQKNIPLMLWFFCANPPLEDGETTVCDGRQFFHEISSSTKELFRQKNLKFTVRMSKEDWQKKYKTDDVNQLKEICRNNNTHLKIFDDRSIMLEYISPAIIPSRCGNYQVFINSLLPTKQLSPNILKFEDDSDIPEEVVSELNEIAEKITTEISWRKGDILMIDNTRILHGRRSFADDQRDIYIRLCSPAFSF | not soluble
MDKIKVGLQYWIPQHGLTRLVGKLASAKAGSLTTAVIRWFIKQYNVNMDEAKHSDPKHFKTFNEFFVRELKEGARPITEGDEIITHPADACVSQFGPIEDGQLIQAKGHNYSAQELLGGDEKLAEEFKDGSFATLYLSPRDYHRVHMPCDGTLRQMIYVPGDLFSVNPLTAENVPNLFARNERVVCIFDTEFGPMAQVLVGATIVGSIEQVWAGTITPPRGNTVYKWDYPAEGDKAVILKKGEEMGRFKLGSTVINLFAKDAIEFDVSMENGQPTVMGTPYALKKLEHHHHHH | soluble
MLHTTDFSDIFSSDYSSKVSFKKGDIIHSFKDYEKKPPQIGVILEGTAVLEGPTNEGRWMINALISENAIFGMESLLETKTAPELTEYRVRALENGRALFIDREFFLNYLYANPHFFHLVLDDVIVRYLFTAKNYKNINQPPIIKVTRIFVEIIELLNLHQTEGPIVLPSYITQTFLADYCRSSRARITESLEELLVNGLLASKKPITISSHEKLLDQIDSFQTGNGLLTK | not soluble
MGSDKIHHHHHHMQTLLITSSFDKTCDYIQVKFPELNYFRLNVDKFSSYKLEIIADGFRIECGEHRLFSSECSSIYFRKPVFENLDGNIDVQYHNFVHKESYSLIEGLIESFSGRCLSKPSVMRRANNKVFQIMLAKSVGFLMPQLSITNDEIVLKKWAKDDAIVKPLAIGTVEYKTKKEFVQTNRLSSEKDTSALKYAPVYLQKFVDKDYEVRVTAINGQFFPARIDASNPVDWRKPNTETLFTKCVLPENIEQQCRTYMYKSSMDFGCFDFLVKDNVWYFLEMNANGQWGWLDNLFEGKISDAIATYLKSGLKNAHC | not soluble
MKEIYLPLHHGKAPHWLLSRMKKLAKPIVKLIVLEYGEREFLERLSNPIFFQSLSNVLGFDWNSSGVTTVLTGVLKAVINNEEFDIRIAGGKGGNALKTPEEIMNYSEQIGADGEKLVEFSRLAAKADNAALIDGYSLYHHAVIFTPRYFTVIQQGMNETERMARRYHWNVYSSVPELENVHEGIITERRENEVVNMLSDISRDAKRLCVDIVRDGSFRRDYERMISVLRWRKGLRVPKKLDWKVVERAYNLQPERFEELLLIRGFGRETIRALALVAEIIYNTEYDKTDPAKYCFAVGGKDGVPFPVRRDIYDEIIEFMRETVKQAEIGDFEKKKMLERLSRYGCDCQERRD | soluble
SLTPLSAITVRSMEGPPTVQQQSPSVIRQSPTQRRKTSTTSSTSRAPPPTNPDASSSSSSFAVPTIHFKESPFYKIQRLIPELVMNVEVTGGRGMCSAKFKLSKADYNLLSNPNSKHRLYLFSGMINPLGSRGNEPIQFPFPNELRCNNVQIKDNIRGFKSKPGTAKPADLTPHLKPYTQQNNVELIYAFTTKEYKLFGYIVEMITPEQLLEKVLQHPKIIKQATLLYLKKTLREDEEMGLTTTSTIMSLQCPISYTRMKYPSKSINCKHLQCFDALWFLHSQLQIPTWQCPVCQIDIALENLAISEFVDDILQNCQKNVEQVELTSDGKWTAILEDDDDSDSDSNDGSRSPEKGTLGEGAAALEHHHHHH | soluble
PMLEVFYSGDRPPDRTRKQAFAAEASAIFQRVIGTPPGRLQLIIQIVSPENTLAVIDLDRPDSDTTAEPDQQ | soluble
